The test system of the test is NLGN3 mRNA in SU-DIPGXIII cells. Nature of the test: qPCR of NLGN3 gene expression in DIPG cells. The conditions noted are these: 50 nM recombinant NLGN3, 12 hour vs vehicle. It is filed as cell-based, human. How it is done: A) Signaling through the PI3K pathway increases in response to NLGN3. Representative Western blot illustrating increased phosphorylation of AKT in response to various concentrations of NLGN3 ranging from 0-50 nM. p-AKT is shown in top panel; total AKT is shown in the bottom panel. B) Quantification of the increased fold change of pAKT/AKT ratio in response to NLGN3 at various doses (oneway ANOVA, F=17.99, P<001; data shown as mean±SEM; *P<0.05, **P<0.01, ***P<0.001 by Tukey's post-hoc tests to further examine pairwise comparisons). Fold change is normalized to blank media (aCSF). (C) Fos mRNA expression increases after 1 hour exposure to […] 50 nM NLGN3 (data shown as mean±SEM; **P<0.01 by unpaired two-tailed Student's t-test). D) NLGN3 mRNA expression increases after 12 hour exposure to 50 nM NLGN3 vs. vehicle in SU-[…] cells. […]
After various cell treatments (described in extended experimental procedures), RNA was extracted from 500,000 SU-pcGBM2 or SU-[…] cells using TRIzol reagent. cDNA was generated using RT-PCR, and gene expression changes were further probed using quantitative PCR.
500,000 SU-pcGBM2 cells were exposed to either aCSF, 50 nM NLGN3 (Origene Technologies, Rockville), 500 nM BKM120 (SelleckChem, Houston, Tex.), 50 nM EGF (Shenandoah, Warwick, R.I.), or a combination of the above treatments. […] Differential expression was determined using the delta CT method. […]
In general terms: Quantitative PCR measures a nucleic acid by following its amplification.

B1: NLGN3: Recombinant full-length neuroligin-3 (Origene), tested as glioma mitogen (protein, listed as Mus musculus)
chain: MWLQPSLSLSPTPTVGRSLCLTLGFLSLVLRASTQAPAPTVNTHFGKLRGARVPLPSEILGPVDQYLGVPYAAPPIGEKRFLPPEPPPSWSGIRNATHFPPVCPQNIHTAVPEVMLPVWFTANLDIVATYIQEPNEDCLYLNVYVPTEDGSGAKKQGEDLADNDGDEDEDIRDSGAKPVMVYIHGGSYMEGTGNMIDGSVLASYGNVIVITLNYRVGVLGFLSTGDQAAKGNYGLLDQIQALRWVSENIAFFGGDPRRITVFGSGIGASCVSLLTLSHHSEGLFQRAIIQSGSALSSWAVNYQPVKYTSLLADKVGCNVLDTVDMVDCLRQKSAKELVEQDIQPARYHVAFGPVIDGDVIPDDPEILMEQGEFLNYDIMLGVNQGEGLKFVEGVVDPEDGVSGTDFDYSVSNFVDNLYGYPEGKDTLRETIKFMYTDWADRDNPETRRKTLVALFTDHQWVEPSVVTADLHARYGSPTYFYAFYHHCQSLMKPAWSDAAHGDEVPYVFGVPMVGPTDLFPCNFSKNDVMLSAVVMTYWTNFAKTGDPNKPVPQDTKFIHTKANRFEEVAWSKYNPRDQLYLHIGLKPRVRDHYRATKVAFWKHLVPHLYNLHDMFHYTSTTTKVPPPDTTHSSHITRRPNGKTWSTKRPAISPAYSNENAPGSWNGDQDAGPLLVENPRDYSTELSVTIAVGASLLFLNVLAFAALYYRKDKRRQEPLRQPSPQRGTGAPELGTAPEEELAALQLGPTHHECEAGPPHDTLRLTALPDYTLTLRRSPDDIPLMTPNTITMIPNSLVGLQTLHPYNTFAAGFNSTGLPHSHSTTRV
Regarding B1, the NLGN3 gene expression entry is on record as “increase in glioma cell NLGN3 gene expression”.

(Values after patent US10377818B2, “Method of treating glioma” (The Board of Trustees of the Leland Stanford Junior …, priority 2015, dated 2019).)
